Reference: US20120172578A1 (VLAAMS INTERUNIVERSITAIR INSTITUUT VOOR BIOTECHNOLOGIE, published 2012)
Substitutions are numbered along the chain they refer to. In names and notes the source's numbering stands.

Columns and labels:
[1] = target: T1, Carcino Embryonic Antigen (UniProt P06731 35-685, limits assumed); experiment: column 'Antigen recognized by antibody'
T1 construct: also called CEA; CEA tumor antigen
T1 sequence (looked up): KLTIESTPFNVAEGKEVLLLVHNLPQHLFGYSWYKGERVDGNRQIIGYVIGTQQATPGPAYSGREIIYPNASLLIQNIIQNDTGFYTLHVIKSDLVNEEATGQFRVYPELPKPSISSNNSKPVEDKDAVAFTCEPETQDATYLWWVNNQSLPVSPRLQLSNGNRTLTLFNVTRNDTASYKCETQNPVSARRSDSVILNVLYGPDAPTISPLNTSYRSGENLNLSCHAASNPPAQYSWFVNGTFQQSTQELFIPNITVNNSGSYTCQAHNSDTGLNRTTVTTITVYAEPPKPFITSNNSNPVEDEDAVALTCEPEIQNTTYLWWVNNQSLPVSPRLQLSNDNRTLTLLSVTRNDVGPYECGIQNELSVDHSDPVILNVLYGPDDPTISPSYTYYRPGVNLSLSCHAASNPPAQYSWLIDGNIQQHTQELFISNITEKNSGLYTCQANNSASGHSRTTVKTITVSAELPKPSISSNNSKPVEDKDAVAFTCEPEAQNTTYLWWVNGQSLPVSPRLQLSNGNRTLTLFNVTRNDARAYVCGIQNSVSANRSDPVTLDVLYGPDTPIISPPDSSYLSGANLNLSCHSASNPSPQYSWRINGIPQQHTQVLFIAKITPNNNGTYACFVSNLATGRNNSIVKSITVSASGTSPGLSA

[2] = target: T2, Prostate Specific Antigen (UniProt P07288 25-261); experiment: BIAcore
T2 construct: also called PSA
T2 sequence (P07288 25-261 limits assumed): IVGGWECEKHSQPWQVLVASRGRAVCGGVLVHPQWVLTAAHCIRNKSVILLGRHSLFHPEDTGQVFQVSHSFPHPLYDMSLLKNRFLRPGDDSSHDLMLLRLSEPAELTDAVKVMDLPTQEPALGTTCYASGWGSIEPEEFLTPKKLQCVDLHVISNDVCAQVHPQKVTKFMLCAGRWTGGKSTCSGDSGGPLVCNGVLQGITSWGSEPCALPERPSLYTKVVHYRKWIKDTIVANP

[3] = target: T2, Prostate Specific Antigen; experiment: column 'Antigen recognized by antibody'
[4] = target: T1, Carcino Embryonic Antigen; experiment: ELISA on coated CEA
Protocol: A microtiter plate (Maxisorp, NUNC) was coated overnight at 4° C. with CEA (Scripps) at a concentration of 1 μg/ml (in PBS), and blocked for two hours at room temperature (RT) with 300 μl 1% casein in PBS. The plates were washed three times with PBS-tween. […] Plates were washed six times with PBS-tween, after which binding of VHH was detected by incubation with mouse anti-Histidine mAB (Serotec; 1:1000 diluted; 100 μl/well) for 1 hour at RT followed by anti-mouse-alkaline phosphatase conjugate (Sigma, 1:2000 diluted), also for 1 hour at RT. Staining was performed with the substrate PNPP (p-nitrophenyl-phosphate, 2 mg/ml in 1M diethanolamine, 1 mM Mg₂SO₄, pH9.8) and the signals were measured after 30 minutes at 405 nm.

human serum albumin = target: T3, human serum albumin (human, UniProt P02768 25-609); experiment: column 'Antigen recognized by antibody'
T3 construct: also called HSA
T3 sequence (P02768 25-609 limits assumed): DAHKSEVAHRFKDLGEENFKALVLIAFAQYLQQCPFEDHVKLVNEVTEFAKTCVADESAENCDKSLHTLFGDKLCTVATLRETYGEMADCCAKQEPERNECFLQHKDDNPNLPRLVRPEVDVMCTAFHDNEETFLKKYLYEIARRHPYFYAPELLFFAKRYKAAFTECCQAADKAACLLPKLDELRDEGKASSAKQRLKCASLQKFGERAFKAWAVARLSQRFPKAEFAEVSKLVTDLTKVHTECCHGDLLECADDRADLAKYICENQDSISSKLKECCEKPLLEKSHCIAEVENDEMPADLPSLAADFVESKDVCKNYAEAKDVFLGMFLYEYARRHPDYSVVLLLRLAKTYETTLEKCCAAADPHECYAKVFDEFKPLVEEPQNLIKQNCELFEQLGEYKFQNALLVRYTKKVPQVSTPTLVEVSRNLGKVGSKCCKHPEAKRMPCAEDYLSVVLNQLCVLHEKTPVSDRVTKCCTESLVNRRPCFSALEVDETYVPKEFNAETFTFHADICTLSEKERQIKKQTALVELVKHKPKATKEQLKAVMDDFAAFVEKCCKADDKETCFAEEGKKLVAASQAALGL

[5] = target: humanized mouse mAb to CD40; experiment: BIAcore
TEM1 [6] = target: T4, TEM1 (UniProt P62593 24-286); experiment: column 'Antigen recognized by antibody'
T4 construct: also called β-lactamase; b-lactamase
T4 sequence (P62593 24-286 limits assumed): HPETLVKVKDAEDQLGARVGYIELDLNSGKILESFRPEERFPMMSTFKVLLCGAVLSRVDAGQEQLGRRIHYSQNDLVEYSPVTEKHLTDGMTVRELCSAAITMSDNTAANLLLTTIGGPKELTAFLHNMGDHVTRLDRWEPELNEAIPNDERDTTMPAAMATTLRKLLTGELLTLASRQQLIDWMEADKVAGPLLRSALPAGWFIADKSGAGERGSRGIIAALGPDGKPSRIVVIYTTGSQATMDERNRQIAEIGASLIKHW

TEM1 [7] = target: T4, TEM1; experiment: IMAC co-purification, Coomassie stained PAGE
β-lactamase = experiment: BIAcore

B1: CEA1 (VHH)
VHH: QVQLVESGGGLVQPGGSLRLSCAASGFTFSKYDMSWVRQAPGKGLEWVSRISSGGGSTYYADSVKGRFTISRDNAKNTLYLQMNSLKPEDTAVYYCATPTYSSDYRGLPPGQGTQVTVSS
notes: Dromedary single domain; purified on Ni-NTA
binding result [1]: binds

B2: C1-B (VHH)
VHH: DVQLQESGGGLVQPGGSLRLSCAASGFTFSTSYMTWARQAPGKGLEWVSGINRDGNNPLYADSVEGRFTVSRDNAKNTLYLQMNSLKSEDTALYYCVAGALVAGARGQGTQVTVSS
notes: as for B1
Kd [2]: 0.8 nM

B3: N13-A (VHH)
VHH: DVQLQESGGGSVQPGGSLRLSCAASGFTFKDASMNWVRQAPGKGLEWVSAINGGGTVTDYADPMEGRFTISRDNAKNTLYLQMNSLNFEDTALYYCATGWLFRANNYRGQGTQVTVSS
notes: as for B1
binding result [3]: binds

B4: anti-carcinoembryonic antigen VHH CEA71 (wild type) (VHH)
VHH: QVQLVESGGGLVQPGGSLRLSCAASGFTFSSSYMSWVRQAPGKGLEWVSGINTDGSFTRYADSVKGRFTISRDNAKNTLYLQMNSLKSEDTALYYCAVGGGLGYGPRGQGTLVTVSS
notes: also called CEA71 WT; CEA wild type VHH
fold lower concentration at which it binds, against the R103W mutant [4]: ~10 fold

B5: CEA72 (VHH)
VHH: B4 VHH with G26E, L112Q
notes: as for B1
binding result [1]: binds

B6: ALB-1 (VHH)
VHH: QVQLQESGGGLVQPGGSLRLSCAASGFAFSSFPMTWVRQAPGKGLEWVSGILEGGGSPAYADSVKGRFTISRDDAKNTLYLQMNSLKPEDTAVYYCAKGYVYAREGARSQGTQVTVSS
notes: Llama single domain; purified on Ni-NTA
binding result (human serum albumin): binds

B7: CD40-1 (VHH)
VHH: QVQLVESGGGLVQPGGSLRLSCAASGFAFSRYSMYWVRQAPGKGLEWVSEIYPDGNGWYTSSVKGRFTISRDNDKNMLYLQMNSLKPDDTAVYYCALSRSGQGRGQGTRVTVSS
Kd [5]: 2 nM

B8: N15-B (VHH)
VHH: DVQLQESGGGSVQAGGSLRLACAATAYTYDSNVLGWFRQAPGKEHEGVAVIYTGTRTTYYADSVKGRFTISQDNAKNTVYLQMNSLKPGDTAMYFCAANVRLGGVWSFDYRGQGTQVTVSS
notes: as for B1
binding result [3]: binds

B9: N3-A (VHH)
VHH: DVQLQESGGSLVQPGGSLRLSCAASGFTFSAYYMIWVRQAPGKGLEWVSGISANGRDTLYEDSVEGRFAISRDNAKNTLYLQMNSLRSEDTALYYCVIGALITGRRGQGTQVTVSS
notes: as for B1
binding result [3]: binds

B10: C11-B (VHH)
VHH: B9 VHH with S10G, T28I, A31N, Y32T, I35T, N54D, E61A, I98T, I102M
notes: as for B1
Kd [2]: 2.6 nM

B11: N8-B (VHH)
VHH: DVQLQESGGGLVQPGGSLRLSCAASGFLFSDTYMTWARQAPGKGLEWLGGISKDGSGTLYEDSVEGRFTISRDNAKNTLYLQMNSLKSEDTALYYCSTGALLPTRPQGQGTQVTVSS
notes: as for B1
Kd [2]: 1.6 nM

B12: C12-A (VHH)
VHH: B11 VHH with Q13R, D31G, G49C, S52N, E61A, I70C
notes: as for B1
Kd [2]: 2.6 nM

B13: ALB-2 (VHH)
VHH: QVQLQESGGGLVQPGGSLRLTCTASGFAFSNFGMSWVRQPPGKGLEWVSAISADSSTKNYADSVKGRFTISRDNTKKMLYLEMNSLKPEDTAVYHCVIGRGSASSQGTQVTVSS
notes: as for B6
binding result (human serum albumin): binds

B14: ALB-5 (VHH)
VHH: B13 VHH with N31S, T75D, S85K, A103P
notes: as for B6
binding result (human serum albumin): binds

B15: anti-β-lactamase VHH TEM04 (wild type) (VHH)
VHH: QVQLVESGGGLVQAGGSLRLSCAASGFTFSSAWMTWVRQAPGKGLEWVTSIATDGSTDYADSVKGRFTISRDNAKNTLYLQLNSLNTEDTAVYYCAKDRWGYVVRGQGTQVTVSS
notes: also called cAbTEM04
binding result (TEM1 [6]): binds

B16: anti-β-lactamase VHH TEM04 R103W mutant (VHH)
VHH: B15 VHH with R105W
notes: also called VHH TEM04 mutant; TEM04 W (mutant)
binding result (TEM1 [7]): binds

B17: ALB-4 (VHH)
VHH: QVQLQESGGGLVQPGNSLRLSCAASGFSFRSFGMSWVRQAPGKGPEWVSSINSSGDDTRYTDSVKGRFTISRDNAKSTLYLQMNSLKPEDTAVYYCTIGSSISRSSQGTQVTVSS
notes: as for B6
binding result (human serum albumin): binds

B18: ALB-3 (VHH)
VHH: QVQLQESGGGLVQPGNSLRLSCAASGFAFGNFGMSWVRQAPGKEPEWVSSIDSIGSDTLYADFVKGRFTISRDNAKSTLYLQMNSLKPEDTAVYYCTIGGSLSRSSQGTQVTVSS
notes: as for B6
binding result (human serum albumin): binds

B19: cAbBLA01 (VHH)
VHH: QLQLVESGGGSVQSGGSLRLSCKVSGYIGSTNCMGWFRQAPGKEREGVASLFTGSGNTYYGDSVKGRFTISEDNAKNTVSLQMNSLKPEDTAMYYCASSSNVGSDESCGRKNTRQFVYTYQGQGTQVTVSS
Kd (β-lactamase): < 1 nM

B20: C9-B (VHH)
VHH: DVQLQESGGGLVQPGGSLRLSCAASGFTFSNHYMTWVRQAPGKGLEWVSVISNDGRYTDYADSVKGRFTISRDNAKNTLYLQMNSLKTEDTALYTCVRGYYLTNLPAGDRGQGTQVTVSS
notes: as for B1
Kd [2]: 3.9 nM

B21: C24-A (VHH)
VHH: B20 VHH with T28A, S30T, N31P, H32S, T35S
notes: as for B1
binding result [3]: binds
